Experimental findings from patent publication EP1506972A1 (Genentech Inc., dated 2005) are described below.

For the assay, the target named is IGF-I F25A (G1S-A70V background) displayed on phage (human; bacteriophage M13). Put plainly: competitive phage ELISA, soluble IGFBP-1 vs coated IGFBP-1.

B1: human IGFBP-1 (other, UniProt P08833 26-259, looked up)
chain: APWQCAPCSAEKLALCPPVSASCSEVTRSAGCGCCPMCALPLGAACGVATARCARGLSCRALPGEQQPLHALTRGQGACVQESDASAPHAAEAGSPESPESTEITEEELLDNFHLMAPSEEDHSILWDAISTYDGSKALHVTNIKKWKEPCRIELYRVVESLAKAQETSGEEISKFYLPNCNKNGFYHSRQCETSMDGEAGLCWCVYPWNGKRIPGSPEIRGDPNCQIYFNVQN
notes: Secreted recombinant protein
In the case of B1, the IC50 (as a rule, the point on the concentration scale where inhibition reaches its midpoint) was found to be 181 nM and the relative IC50 (IC50mut/IC50 G1S-A70V) was 22.1 fold.
